The text below walks through data of US20230167426.

The data set deals with T1, AcrE2 (type I-E anti-CRISPR from Pseudomonas phage JBD88a).
T1 chain: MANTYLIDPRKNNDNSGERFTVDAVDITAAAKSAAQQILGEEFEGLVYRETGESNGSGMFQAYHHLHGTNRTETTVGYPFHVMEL

B1: 6×His-tagged NmeCas9 (Neisseria meningitidis Cas9) (protein)
chain: MAAFKPNSINYILGLDIGIASVGWAMVEIDEEENPIRLIDLGVRVFERAEVPKTGDSLAMARRLARSVRRLTRRRAHRLLRTRRLLKREGVLQAANFDENGLIKSLPNTPWQLRAAALDRKLTPLEWSAVLLHLIKHRGYLSQRKNEGETADKELGALLKGVAGNAHALQTGDFRTPAELALNKFEKESGHIRNQRSDYSHTFSRKDLQAELILLFEKQKEFGNPHVSGGLKEGIETLLMTQRPALSGDAVQKMLGHCTFEPAEPKAAKNTYTAERFIWLTKLNNLRILEQGSERPLTDTERATLMDEPYRKSKLTYAQARKLLGLEDTAFFKGLRYGKDNAEASTLMEMKAYHAISRALEKEGLKDKKSPLNLSPELQDEIGTAFSLFKTDEDITGRLKDRIQPEILEALLKHISFDKFVQISLKALRRIVPLMEQGKRYDEACAEIYGDHYGKKNTEEKIYLPPIPADEIRNPVVLRALSQARKVINGVVRRYGSPARIHIETAREVGKSFKDRKEIEKRQEENRKDREKAAAKFREYFPNFVGEPKSKDILKLRLYEQQHGKCLYSGKEINLGRLNEKGYVEIDHALPFSRTWDDSFNNKVLVLGSENQNKGNQTPYEYFNGKDNSREWQEFKARVETSRFPRSKKQRILLQKFDEDGFKERNLNDTRYVNRFLCQFVADRMRLTGKGKKRVFASNGQITNLLRGFWGLRKVRAENDRHHALDAVVVACSTVAMQQKITRFVRYKEMNAFDGKTIDKETGEVLHQKTHFPQPWEFFAQEVMIRVFGKPDGKPEFEEADTLEKLRTLLAEKLSSRPEAVHEYVTPLFVSRAPNRKMSGQGHMETVKSAKRLDEGVSVLRVPLTQLKLKDLEKMVNREREPKLYEALKARLEAHKDDPAKAFAEPFYKYDKAGNRTQQVKAVRVEQVQKTGVWVRNHNGIADNATMVRVDVFEKGDKYYLVPIYSWQVAKGILPDRAVVQGKDEEDWQLIDDSFNFKFSLHPNDLVEVITKKARMFGYFASCHRGTGNINIRIHDLDHKIGKNGILEGIGVKTALSFQKYQIDELGKEIRPCRLKKRPPVR
Turning to B1, the “in vitro DNA cleavage by NmeCas9” value is “Cleavage was unaffected by prior incubation of NmeCas9 with increasing amounts of the control, type I-specific anti-CRISPR, AcrE2”.
